According to PMC9482650, “Quantitative fragmentomics allow affinity mapping of interactomes” (Nature Communications, 2022):

T1: GRIP1_4, Q9Y3R0
T1 sequence (Q9Y3R0 467-571, limits assumed, looked up): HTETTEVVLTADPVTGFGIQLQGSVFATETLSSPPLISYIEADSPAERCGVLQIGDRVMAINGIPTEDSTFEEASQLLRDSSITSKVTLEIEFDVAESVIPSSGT

T2: DLG3_2, Q92796
T2 sequence (Q92796 221-321, limits assumed, looked up): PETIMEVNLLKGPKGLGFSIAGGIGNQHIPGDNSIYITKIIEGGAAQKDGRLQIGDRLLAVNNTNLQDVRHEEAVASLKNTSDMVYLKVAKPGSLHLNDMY

T3: RHPN1, Q8TCX5
T3 sequence (Q8TCX5 508-602, limits assumed, looked up): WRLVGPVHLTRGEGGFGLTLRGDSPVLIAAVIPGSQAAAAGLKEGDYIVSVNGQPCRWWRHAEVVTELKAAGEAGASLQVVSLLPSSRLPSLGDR

T4: PARD3B_1, Q8TEW8
T4 sequence (Q8TEW8 196-299, limits assumed, looked up): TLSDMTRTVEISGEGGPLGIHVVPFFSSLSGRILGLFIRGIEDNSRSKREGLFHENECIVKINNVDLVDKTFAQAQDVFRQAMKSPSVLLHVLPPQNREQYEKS

T5: MPDZ_10, O75970
T5 sequence (O75970 1624-1722, limits assumed, looked up): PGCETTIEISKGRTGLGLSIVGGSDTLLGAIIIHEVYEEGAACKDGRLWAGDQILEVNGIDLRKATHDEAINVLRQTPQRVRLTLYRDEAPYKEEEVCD

T6: HTRA3, P83110
T6 sequence (P83110 354-453, limits assumed, looked up): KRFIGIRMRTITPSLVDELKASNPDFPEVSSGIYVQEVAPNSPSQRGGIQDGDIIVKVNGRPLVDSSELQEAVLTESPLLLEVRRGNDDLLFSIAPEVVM

T7: DFNB31_1, Q9P202
T7 sequence (Q9P202 135-233, limits assumed, looked up): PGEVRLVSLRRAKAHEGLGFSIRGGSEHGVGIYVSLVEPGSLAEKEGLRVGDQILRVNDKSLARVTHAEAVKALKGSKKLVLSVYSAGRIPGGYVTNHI

T8: DLG3_1, Q92796
T8 sequence (Q92796 125-227, limits assumed, looked up): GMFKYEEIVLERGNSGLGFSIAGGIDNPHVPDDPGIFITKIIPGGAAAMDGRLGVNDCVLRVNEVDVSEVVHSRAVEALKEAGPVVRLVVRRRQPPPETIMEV

T9: PTPN13_1, Q12923
T9 sequence (Q12923 1088-1188, limits assumed, looked up): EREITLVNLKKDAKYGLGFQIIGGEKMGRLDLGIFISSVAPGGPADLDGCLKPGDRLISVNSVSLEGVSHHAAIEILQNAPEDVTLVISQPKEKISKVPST

T10: LIN7B, Q9HAP6
T10 sequence (Q9HAP6 88-185, limits assumed, looked up): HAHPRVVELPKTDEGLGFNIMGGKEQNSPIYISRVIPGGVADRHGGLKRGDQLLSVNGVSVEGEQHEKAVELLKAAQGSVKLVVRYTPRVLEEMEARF

T11: GRIP1_2, Q9Y3R0
T11 sequence (Q9Y3R0 145-248, limits assumed, looked up): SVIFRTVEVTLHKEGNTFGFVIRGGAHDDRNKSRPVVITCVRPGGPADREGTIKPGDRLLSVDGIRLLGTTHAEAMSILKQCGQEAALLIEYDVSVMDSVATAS

T12: SYNJ2BP, P57105
T12 sequence (P57105 8-110, limits assumed, looked up): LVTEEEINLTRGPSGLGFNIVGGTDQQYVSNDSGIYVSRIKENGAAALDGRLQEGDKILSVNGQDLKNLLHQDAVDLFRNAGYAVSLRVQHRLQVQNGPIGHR

B1: GRIK2, Q13002 (peptide)
chain: RRLPGKETMA
B2: DGKH, Q86XP1 (peptide)
chain: LGRSTPQSEV

Each binder was assayed against T1, GRIP1_4, Q9Y3R0 (assay: holdup assay). Settings: plain residues with an end cap or a label only (N-terminal biotin on a linker: ado-ado).
Parameters: key: below the threshold = too weak to quantify, mostly under pKd 3.1 to 4
B1 was tested, and the pKd was “below the threshold”. B2 was tested, and the pKd was “below the threshold”.

What follows are binders tested against T2, DLG3_2, Q92796 (assay: holdup assay). Settings: plain residues with an end cap or a label only (N-terminal biotin on a linker: ado-ado).
Parameters: key: below the threshold = too weak to quantify, mostly under pKd 3.1 to 4
A pKd of 4.18 was found for B1 in this work. In the case of B2, the pKd is reported as “below the threshold”.

These binders were tested against HTRA1, Q92743 (assay: holdup assay). Settings: plain residues with an end cap or a label only (N-terminal biotin on a linker: ado-ado).
Sequence of HTRA1, Q92743 (Q92743 360-477): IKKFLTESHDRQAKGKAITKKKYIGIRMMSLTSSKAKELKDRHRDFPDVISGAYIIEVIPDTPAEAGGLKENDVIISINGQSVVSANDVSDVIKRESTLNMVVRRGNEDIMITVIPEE
Parameters: key: below the threshold = too weak to quantify, mostly under pKd 3.1 to 4
With B1 the pKd was “below the threshold”. With B2 the pKd was “below the threshold”.

The binders below were run against TJP1_3, Q07157 (assay: holdup assay). Settings: plain residues with an end cap or a label only (N-terminal biotin on a linker: ado-ado).
Sequence of TJP1_3, Q07157 (Q07157 416-512): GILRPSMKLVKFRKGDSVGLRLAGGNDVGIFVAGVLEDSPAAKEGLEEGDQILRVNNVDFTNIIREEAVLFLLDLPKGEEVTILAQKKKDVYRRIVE
Parameters: key: below the threshold = too weak to quantify, mostly under pKd 3.1 to 4
For B1, the pKd was “below the threshold”. B2 was tested, and the pKd was “below the threshold”.

These binders were tested against T3, RHPN1, Q8TCX5 (assay: holdup assay). Settings: plain residues with an end cap or a label only (N-terminal biotin on a linker: ado-ado).
Parameters: key: below the threshold = too weak to quantify, mostly under pKd 3.1 to 4
For B1, the pKd was “below the threshold”. A pKd of 4.49 was found for B2 in this work.

These binders were tested against T4, PARD3B_1, Q8TEW8 (assay: holdup assay). Settings: plain residues with an end cap or a label only (N-terminal biotin on a linker: ado-ado).
Parameters: key: below the threshold = too weak to quantify, mostly under pKd 3.1 to 4
With B1 the pKd was “below the threshold”. With B2 the pKd was “below the threshold”.

These binders were tested against T5, MPDZ_10, O75970 (assay: holdup assay). Settings: plain residues with an end cap or a label only (N-terminal biotin on a linker: ado-ado).
Parameters: key: below the threshold = too weak to quantify, mostly under pKd 3.1 to 4
B1 was tested, and the pKd was “below the threshold”. With B2 the pKd was “below the threshold”.

The binders below were run against T6, HTRA3, P83110 (assay: holdup assay). Settings: plain residues with an end cap or a label only (N-terminal biotin on a linker: ado-ado).
Parameters: key: below the threshold = too weak to quantify, mostly under pKd 3.1 to 4
With B1 the pKd was “below the threshold”. In the case of B2, the pKd is reported as “below the threshold”.

What follows are binders tested against LAP2, Q96RT1 (assay: holdup assay). Settings: plain residues with an end cap or a label only (N-terminal biotin on a linker: ado-ado).
Sequence of LAP2, Q96RT1 (Q96RT1 other isoform, or with tags, fused parts or gaps): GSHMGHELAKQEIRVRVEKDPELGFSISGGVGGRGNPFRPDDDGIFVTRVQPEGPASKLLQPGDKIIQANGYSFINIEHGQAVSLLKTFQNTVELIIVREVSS
Parameters: key: below the threshold = too weak to quantify, mostly under pKd 3.1 to 4
With B1 the pKd was “below the threshold”. In the case of B2, the pKd is reported as “below the threshold”.

These binders were tested against Inadl_10, Q8NI35 (assay: holdup assay). Settings: plain residues with an end cap or a label only (N-terminal biotin on a linker: ado-ado).
Sequence of Inadl_10, Q8NI35 (Q8NI35 1673-1763): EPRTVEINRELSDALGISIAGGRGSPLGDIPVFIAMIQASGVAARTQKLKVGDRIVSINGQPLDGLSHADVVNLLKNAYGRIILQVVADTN
Parameters: key: below the threshold = too weak to quantify, mostly under pKd 3.1 to 4
In the case of B1, the pKd is reported as “below the threshold”. With B2 the pKd was “below the threshold”.

The binders below were run against IL16_1, Q14005 (assay: holdup assay). Settings: plain residues with an end cap or a label only (N-terminal biotin on a linker: ado-ado).
Sequence of IL16_1, Q14005 (Q14005 210-306): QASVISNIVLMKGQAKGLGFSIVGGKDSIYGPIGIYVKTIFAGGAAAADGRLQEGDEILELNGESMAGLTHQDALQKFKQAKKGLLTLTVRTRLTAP
Parameters: key: below the threshold = too weak to quantify, mostly under pKd 3.1 to 4
In the case of B1, the pKd is reported as “below the threshold”. With B2 the pKd was “below the threshold”.

The binders below were run against T7, DFNB31_1, Q9P202 (assay: holdup assay). Settings: plain residues with an end cap or a label only (N-terminal biotin on a linker: ado-ado).
Parameters: key: below the threshold = too weak to quantify, mostly under pKd 3.1 to 4
For B1, the pKd was “below the threshold”. A pKd of 3.52 was found for B2 in this work.

What follows are binders tested against T8, DLG3_1, Q92796 (assay: holdup assay). Settings: plain residues with an end cap or a label only (N-terminal biotin on a linker: ado-ado).
Parameters: key: below the threshold = too weak to quantify, mostly under pKd 3.1 to 4
For B1, the pKd was “below the threshold”. B2 was tested, and the pKd was “below the threshold”.

These binders were tested against Inadl_5, Q8NI35 (assay: holdup assay). Settings: plain residues with an end cap or a label only (N-terminal biotin on a linker: ado-ado).
Sequence of Inadl_5, Q8NI35 (Q8NI35 673-780): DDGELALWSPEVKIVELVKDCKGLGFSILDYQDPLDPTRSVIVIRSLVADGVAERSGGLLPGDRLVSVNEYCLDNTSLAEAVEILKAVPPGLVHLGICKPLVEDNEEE
Parameters: key: below the threshold = too weak to quantify, mostly under pKd 3.1 to 4
B1 was tested, and the pKd was “below the threshold”. B2 was tested, and the pKd was “below the threshold”.

The binders below were run against GORASP2, Q9H8Y8 (assay: holdup assay). Settings: plain residues with an end cap or a label only (N-terminal biotin on a linker: ado-ado).
Parameters: key: below the threshold = too weak to quantify, mostly under pKd 3.1 to 4
A pKd of 3.55 was found for B1 in this work. With B2 the pKd was “below the threshold”.

These binders were tested against DLG4_1, P78352 (assay: holdup assay). Settings: plain residues with an end cap or a label only (N-terminal biotin on a linker: ado-ado).
Sequence of DLG4_1, P78352 (P78352 62-152): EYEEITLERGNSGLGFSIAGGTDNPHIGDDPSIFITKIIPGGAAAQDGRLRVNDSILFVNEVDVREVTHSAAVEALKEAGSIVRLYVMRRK
Parameters: key: below the threshold = too weak to quantify, mostly under pKd 3.1 to 4
With B1 the pKd was “below the threshold”. A pKd of 3.85 was found for B2 in this work.

What follows are binders tested against NOS1, P29475 (assay: holdup assay). Settings: plain residues with an end cap or a label only (N-terminal biotin on a linker: ado-ado).
Sequence of NOS1, P29475 (P29475 9-101): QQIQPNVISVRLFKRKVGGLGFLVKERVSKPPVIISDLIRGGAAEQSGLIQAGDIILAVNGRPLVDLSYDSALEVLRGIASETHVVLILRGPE
Parameters: key: below the threshold = too weak to quantify, mostly under pKd 3.1 to 4
B1 was tested, and the pKd was “below the threshold”. B2 was tested, and the pKd was “below the threshold”.

What follows are binders tested against NHERF4_4, Q86UT5 (assay: holdup assay). Settings: plain residues with an end cap or a label only (N-terminal biotin on a linker: ado-ado).
Sequence of NHERF4_4, Q86UT5 (Q86UT5 464-550): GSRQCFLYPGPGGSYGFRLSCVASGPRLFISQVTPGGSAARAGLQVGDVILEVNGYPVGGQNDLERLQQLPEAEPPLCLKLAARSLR
Parameters: key: below the threshold = too weak to quantify, mostly under pKd 3.1 to 4
In the case of B1, the pKd is reported as “below the threshold”. In the case of B2, the pKd is reported as “below the threshold”.

The binders below were run against DLG1_3, Q12959 (assay: holdup assay). Settings: plain residues with an end cap or a label only (N-terminal biotin on a linker: ado-ado).
Sequence of DLG1_3, Q12959 (Q12959 457-571): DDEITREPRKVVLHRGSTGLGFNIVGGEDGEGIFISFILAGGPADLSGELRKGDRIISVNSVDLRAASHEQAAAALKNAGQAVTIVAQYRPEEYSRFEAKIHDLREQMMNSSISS
Parameters: key: below the threshold = too weak to quantify, mostly under pKd 3.1 to 4
A pKd of 3.69 was found for B1 in this work. For B2, the pKd was “below the threshold”.

What follows are binders tested against Inadl_9, Q8NI35 (assay: holdup assay). Settings: plain residues with an end cap or a label only (N-terminal biotin on a linker: ado-ado).
Sequence of Inadl_9, Q8NI35 (Q8NI35 1530-1615): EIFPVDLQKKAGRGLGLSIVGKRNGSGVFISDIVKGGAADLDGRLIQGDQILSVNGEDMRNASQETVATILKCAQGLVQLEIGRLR
Parameters: key: below the threshold = too weak to quantify, mostly under pKd 3.1 to 4
For B1, the pKd was “below the threshold”. For B2, the pKd was “below the threshold”.

What follows are binders tested against TJP2_1, Q9UDY2 (assay: holdup assay). Settings: plain residues with an end cap or a label only (N-terminal biotin on a linker: ado-ado).
Sequence of TJP2_1, Q9UDY2 (Q9UDY2 24-128): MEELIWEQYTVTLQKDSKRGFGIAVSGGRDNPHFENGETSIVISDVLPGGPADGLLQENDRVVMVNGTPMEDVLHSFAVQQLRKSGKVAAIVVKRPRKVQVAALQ
Parameters: key: below the threshold = too weak to quantify, mostly under pKd 3.1 to 4
For B1, the pKd was “below the threshold”. In the case of B2, the pKd is reported as “below the threshold”.

These binders were tested against T9, PTPN13_1, Q12923 (assay: holdup assay). Settings: plain residues with an end cap or a label only (N-terminal biotin on a linker: ado-ado).
Parameters: key: below the threshold = too weak to quantify, mostly under pKd 3.1 to 4
With B1 the pKd was “below the threshold”. B2 was tested, and the pKd was “below the threshold”.

Each binder was assayed against T10, LIN7B, Q9HAP6 (assay: holdup assay). Settings: plain residues with an end cap or a label only (N-terminal biotin on a linker: ado-ado).
Parameters: key: below the threshold = too weak to quantify, mostly under pKd 3.1 to 4
A pKd of 3.64 was found for B1 in this work. With B2 the pKd was “below the threshold”.

Each binder was assayed against T11, GRIP1_2, Q9Y3R0 (assay: holdup assay). Settings: plain residues with an end cap or a label only (N-terminal biotin on a linker: ado-ado).
Parameters: key: below the threshold = too weak to quantify, mostly under pKd 3.1 to 4
B1 was tested, and the pKd was “below the threshold”. With B2 the pKd was “below the threshold”.

What follows are binders tested against T12, SYNJ2BP, P57105 (assay: holdup assay). Settings: plain residues with an end cap or a label only (N-terminal biotin on a linker: ado-ado).
Parameters: key: below the threshold = too weak to quantify, mostly under pKd 3.1 to 4
For B1, the pKd was “below the threshold”. A pKd of 4.49 was found for B2 in this work.
